Here are results for 4 molecules from patent publication US20220054646A1 (Bicycle, published 2022).

*1 amine or outer side, *2 acyl side, *3 side chain or, on linkers, in order; H or OH if unused. Bridges are numbered along the chain shown (N, C = ends). Where no end group is shown, it is not given here. TBMB = c1c(C[*:1])cc(C[*:3])cc1C[*:2]

In assay [1] the target is T1, Prostate-specific membrane antigen (PSMA) (human, UniProt Q04609 44-750, limits assumed).
T1 construct: the construct used in the fluorescence polarization and enzyme assays is not described (methods cited from Shen et al 2013 and WO 2009/070302); also called Glutamate carboxypeptidase II; GCPII
T1 sequence (Q04609 44-750 limits assumed): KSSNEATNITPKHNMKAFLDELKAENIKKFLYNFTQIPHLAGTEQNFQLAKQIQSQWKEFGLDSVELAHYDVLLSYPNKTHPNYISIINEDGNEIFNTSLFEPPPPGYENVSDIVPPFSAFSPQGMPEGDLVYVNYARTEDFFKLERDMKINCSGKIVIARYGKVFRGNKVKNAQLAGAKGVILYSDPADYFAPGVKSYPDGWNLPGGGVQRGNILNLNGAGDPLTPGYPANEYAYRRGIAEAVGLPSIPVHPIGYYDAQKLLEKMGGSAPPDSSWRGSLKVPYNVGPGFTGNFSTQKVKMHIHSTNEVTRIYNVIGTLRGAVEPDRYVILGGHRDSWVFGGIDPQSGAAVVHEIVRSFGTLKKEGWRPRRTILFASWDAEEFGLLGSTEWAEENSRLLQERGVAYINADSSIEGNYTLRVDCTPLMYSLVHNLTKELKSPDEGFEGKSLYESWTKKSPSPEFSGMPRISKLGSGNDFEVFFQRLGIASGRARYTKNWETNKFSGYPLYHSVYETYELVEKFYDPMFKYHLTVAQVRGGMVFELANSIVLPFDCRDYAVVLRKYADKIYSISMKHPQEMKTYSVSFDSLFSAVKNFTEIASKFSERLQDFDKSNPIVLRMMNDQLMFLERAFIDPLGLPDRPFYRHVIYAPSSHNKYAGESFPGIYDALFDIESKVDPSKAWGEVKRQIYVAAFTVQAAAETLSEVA
In words: fluorescence polarization assay, FP(h), PSMA. The protocol: PSMA binding was measured using the fluorescence polarization assay methodology described in Shen et al (2013) PLOS ONE 8(7), e68339 and PSMA enzyme inhibition was measured using the methodology described in WO 2009/070302.

Assay [2] has as its target T1, Prostate-specific membrane antigen …. The assay can be described thus: cell-based or functional assay.

In the case of FCSECYMMEDGTCA (linker 2-5-13 via TBMB (inferred), Bicyclic peptide on TBMB scaffold) [21-31-11-T01-N001], the Ki in assay [1] turned out to be 6 nM.

ACMVCHMMEDGTCA (linker 2-5-13 via TBMB (inferred), Bicyclic peptide on TBMB scaffold) [21-31-N002] showed a Ki in assay [1] of 40 nM. Besides, the “Enzyme inhibition IC50” value in assay [2] came out at 695 nM.

B1: 21-31-04-T01-N007 (peptide)
peptide: EVCWDCFMMEDGTCAXXXXXXK
modifications: not fully specified; N-terminal acetyl (Ac); D-residue at the N-terminus (printed (D-E) / (D-Gln)); Sar6 = six sarcosine residues; C-terminal D-Lys; Ci, Cii and Ciii cyclised with TBMB (tri-substituted 1,3,5-trismethylbenzene scaffold)
notes: Bicyclic peptide on TBMB scaffold
B1 gave a Ki in assay [1] of 30 nM.

CIECYIMEDGTCA (linker 1-4-12 via TBMB (inferred), Bicyclic peptide on TBMB scaffold) [21-31-01-N001] returned a Ki in assay [1] of 70 nM.
